Results published in paper PMC4773404.

What was measured:
Test in all cases: SPR; Biacore T200; receptor domains amine-coupled to CM5-S Series chips; analytes 0-20 nM flowed over; 10 mM HEPES, 150 mM NaCl, 3 mM EDTA, 0.05% surfactant P20, pH 7.4; double-referenced; 1:1 Langmuir fit
[1] = target: sortilin luminal domain (LD)
[2] = target: p75NTR extracellular domain (p75NTR ECD) (UniProt P08138)
[3] = target: SorCS2 luminal domain (LD)

Sequence of p75NTR extracellular domain (p75NTR ECD) (P08138 29-250): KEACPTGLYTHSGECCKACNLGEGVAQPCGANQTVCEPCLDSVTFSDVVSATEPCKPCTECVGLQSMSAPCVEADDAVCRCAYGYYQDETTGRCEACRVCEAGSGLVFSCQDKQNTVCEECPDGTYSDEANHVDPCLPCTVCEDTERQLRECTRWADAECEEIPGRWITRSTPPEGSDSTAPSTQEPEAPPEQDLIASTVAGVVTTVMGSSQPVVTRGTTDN

| Substance | Kd [1] | koff [1] | kon [1] | Kd [2] | koff [2] | kon [2] | Kd [3] | koff [3] | kon [3] |
| --- | --- | --- | --- | --- | --- | --- | --- | --- | --- |
| human proBDNF Met66, furin cleavage-resistant (FCR) (natural protein) | 3.83 nM | 0.00504 s⁻¹ | 1.56e+06 M⁻¹ s⁻¹ | 2.31 nM | 0.00325 s⁻¹ | 1.55e+06 M⁻¹ s⁻¹ | 2.23 nM | 0.00453 s⁻¹ | 2.14e+06 M⁻¹ s⁻¹ |
| human proBDNF Val66, furin cleavage-resistant (FCR) (natural protein) | 2.9 nM | 0.00746 s⁻¹ | 2.48e+06 M⁻¹ s⁻¹ | 2.42 nM | 0.00394 s⁻¹ | 1.88e+06 M⁻¹ s⁻¹ | 2.23 nM | 0.004 s⁻¹ | 1.79e+06 M⁻¹ s⁻¹ |
| brain-derived neurotrophic factor (BDNF) (ligand) | 6.44 nM | 0.0217 s⁻¹ | 3.8e+06 M⁻¹ s⁻¹ | 0.62 nM | 0.00251 s⁻¹ | 4.44e+06 M⁻¹ s⁻¹ |  |  |  |
